Consider five molecules from patent US20140087995A1 (published 2014).

Numbered stars: 1 amine (or outer) side, 2 acyl side, 3 side chain; on linkers, the order of the positions; unused ones are H or OH. Bridge positions count the residues as written; N and C are the ends. Side chains are listed from the residue outwards. Ends that are not written are not given here. * marks the point of attachment. C20 diacid = O=C(O)CCCCCCCCCCCCCCCCCCC(=O)*; γGlu = O=C(O)[C@H](CCC(=O)[*:2])N[*:1]; AEEA = NCCOCCOCC(=O)O

This test deals with T1, human amylin receptor (human, UniProt P30988 25-474; O60896 24-148, limits assumed).
T1 construct: whole, on cells; Calcitonin receptor plus RAMP-3 gives the amylin 3(a) receptor; membranes of Amylin 3(a)/CRE-luc cells were used; also called hAmylin-R; hAmylinR
T1 sequence (looked up) 1: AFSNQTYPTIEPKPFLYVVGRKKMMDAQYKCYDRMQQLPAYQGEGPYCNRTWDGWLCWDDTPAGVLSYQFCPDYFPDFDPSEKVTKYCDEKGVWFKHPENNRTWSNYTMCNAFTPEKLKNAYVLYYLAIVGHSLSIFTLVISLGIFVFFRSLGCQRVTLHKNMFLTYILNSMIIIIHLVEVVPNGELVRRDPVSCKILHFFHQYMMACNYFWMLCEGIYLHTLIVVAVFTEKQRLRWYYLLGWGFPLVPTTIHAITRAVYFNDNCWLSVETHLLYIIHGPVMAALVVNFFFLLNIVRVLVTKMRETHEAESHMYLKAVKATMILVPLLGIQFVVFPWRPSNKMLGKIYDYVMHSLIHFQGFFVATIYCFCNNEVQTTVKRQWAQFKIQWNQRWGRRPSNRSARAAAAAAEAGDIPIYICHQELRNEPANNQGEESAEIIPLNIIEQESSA
T1 sequence (looked up) 2: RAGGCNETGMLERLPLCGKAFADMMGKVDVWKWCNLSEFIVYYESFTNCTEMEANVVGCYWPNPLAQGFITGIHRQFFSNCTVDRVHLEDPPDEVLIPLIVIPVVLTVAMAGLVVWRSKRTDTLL
Nature of the test: SPA competition binding, displacement of 125I-rat amylin from membranes with human amylin 3(a) receptor (Assay V). The gist of the method: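 SPA beads + BHK amylin 3(a)/CRE-luc membranes, 35 ng/μL final; buffer 50 mM Hepes pH 7.4, 1 mM CaCl2, 5 mM MgCl₂, 0.1% OA, 0.02% Tween20. 120 min, 25° C, shaken; scintillation count. IC₅₀ by one-site binding competition fit, taken as receptor affinity.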
(In general: In a radioligand displacement assay an active substance lowers the binding of a labelled ligand.)

B1: N^ε1-[2-[2-[2-[[(4S)-4-carboxy-4-(19-carboxynonadecanoylamino)butanoyl]amino]ethoxy]ethoxy]acetyl]-[His14,Arg17,Pro21,Pro27,Pro34]-h-amylin (peptide)
peptide: K([AEEA-γGlu-C20 diacid])CNTATCATQRLAHFLRHSSPNFGAIPSSTNVGPNTY-NH2
modifications: disulfide 2-7; N-terminus assumed
SMILES: CC[C@H](C)[C@H](NC(=O)[C@H](C)NC(=O)CNC(=O)[C@H](Cc1ccccc1)NC(=O)[C@H](CC(N)=O)NC(=O)[C@@H]1CCCN1C(=O)[C@H](CO)NC(=O)[C@H](CO)NC(=O)[C@H](Cc1c[nH]cn1)NC(=O)[C@H](CCCNC(=N)N)NC(=O)[C@H](CC(C)C)NC(=O)[C@H](Cc1ccccc1)NC(=O)[C@H](Cc1c[nH]cn1)NC(=O)[C@H](C)NC(=O)[C@H](CC(C)C)NC(=O)[C@H](CCCNC(=N)N)NC(=O)[C@H](CCC(N)=O)NC(=O)[C@@H](NC(=O)[C@H](C)NC(=O)[C@@H]1CSSC[C@H](NC(=O)[C@@H](N)CCCCNC(=O)COCCOCCNC(=O)CC[C@H](NC(=O)CCCCCCCCCCCCCCCCCCC(=O)O)C(=O)O)C(=O)N[C@@H](CC(N)=O)C(=O)N[C@@H]([C@@H](C)O)C(=O)N[C@@H](C)C(=O)N[C@@H]([C@@H](C)O)C(=O)N1)[C@@H](C)O)C(=O)N1CCC[C@H]1C(=O)N[C@@H](CO)C(=O)N[C@@H](CO)C(=O)N[C@H](C(=O)N[C@@H](CC(N)=O)C(=O)N[C@H](C(=O)NCC(=O)N1CCC[C@H]1C(=O)N[C@@H](CC(N)=O)C(=O)N[C@H](C(=O)N[C@@H](Cc1ccc(O)cc1)C(N)=O)[C@@H](C)O)C(C)C)[C@@H](C)O
notes: also called 14H, 17R, 21P, 27P, 34P
As usually defined, the IC50 is the concentration at which inhibition is half-maximal. B1 showed an IC50 of 88 pM.

B2: N^ε1-[2-[2-[2-[[(4S)-4-carboxy-4-(19-carboxynonadecanoylamino)butanoyl]amino]ethoxy]ethoxy]acetyl]-[Ser14,Arg17,Pro21,Pro27,Pro31]-h-amylin (peptide)
peptide: K([AEEA-γGlu-C20 diacid])CNTATCATQRLASFLRHSSPNFGAIPSSTPVGSNTY-NH2
modifications: disulfide 2-7; N-terminus assumed
SMILES: CC[C@H](C)[C@H](NC(=O)[C@H](C)NC(=O)CNC(=O)[C@H](Cc1ccccc1)NC(=O)[C@H](CC(N)=O)NC(=O)[C@@H]1CCCN1C(=O)[C@H](CO)NC(=O)[C@H](CO)NC(=O)[C@H](Cc1c[nH]cn1)NC(=O)[C@H](CCCNC(=N)N)NC(=O)[C@H](CC(C)C)NC(=O)[C@H](Cc1ccccc1)NC(=O)[C@H](CO)NC(=O)[C@H](C)NC(=O)[C@H](CC(C)C)NC(=O)[C@H](CCCNC(=N)N)NC(=O)[C@H](CCC(N)=O)NC(=O)[C@@H](NC(=O)[C@H](C)NC(=O)[C@@H]1CSSC[C@H](NC(=O)[C@@H](N)CCCCNC(=O)COCCOCCNC(=O)CC[C@H](NC(=O)CCCCCCCCCCCCCCCCCCC(=O)O)C(=O)O)C(=O)N[C@@H](CC(N)=O)C(=O)N[C@@H]([C@@H](C)O)C(=O)N[C@@H](C)C(=O)N[C@@H]([C@@H](C)O)C(=O)N1)[C@@H](C)O)C(=O)N1CCC[C@H]1C(=O)N[C@@H](CO)C(=O)N[C@@H](CO)C(=O)N[C@H](C(=O)N1CCC[C@H]1C(=O)N[C@H](C(=O)NCC(=O)N[C@@H](CO)C(=O)N[C@@H](CC(N)=O)C(=O)N[C@H](C(=O)N[C@@H](Cc1ccc(O)cc1)C(N)=O)[C@@H](C)O)C(C)C)[C@@H](C)O
notes: also called 14S, 17R, 21P, 27P, 31P
As for B2, the IC50 worked out at 104 pM.

B3: N^ε1-[2-[2-[2-[[(4S)-4-carboxy-4-(19-carboxynonadecanoylamino)butanoyl]amino]ethoxy]ethoxy]acetyl]-[Lys14,Arg17,Pro21,Pro27,Pro31]-h-amylin (peptide)
peptide: K([AEEA-γGlu-C20 diacid])CNTATCATQRLAKFLRHSSPNFGAIPSSTPVGSNTY-NH2
modifications: disulfide 2-7; N-terminus assumed
SMILES: CC[C@H](C)[C@H](NC(=O)[C@H](C)NC(=O)CNC(=O)[C@H](Cc1ccccc1)NC(=O)[C@H](CC(N)=O)NC(=O)[C@@H]1CCCN1C(=O)[C@H](CO)NC(=O)[C@H](CO)NC(=O)[C@H](Cc1c[nH]cn1)NC(=O)[C@H](CCCNC(=N)N)NC(=O)[C@H](CC(C)C)NC(=O)[C@H](Cc1ccccc1)NC(=O)[C@H](CCCCN)NC(=O)[C@H](C)NC(=O)[C@H](CC(C)C)NC(=O)[C@H](CCCNC(=N)N)NC(=O)[C@H](CCC(N)=O)NC(=O)[C@@H](NC(=O)[C@H](C)NC(=O)[C@@H]1CSSC[C@H](NC(=O)[C@@H](N)CCCCNC(=O)COCCOCCNC(=O)CC[C@H](NC(=O)CCCCCCCCCCCCCCCCCCC(=O)O)C(=O)O)C(=O)N[C@@H](CC(N)=O)C(=O)N[C@@H]([C@@H](C)O)C(=O)N[C@@H](C)C(=O)N[C@@H]([C@@H](C)O)C(=O)N1)[C@@H](C)O)C(=O)N1CCC[C@H]1C(=O)N[C@@H](CO)C(=O)N[C@@H](CO)C(=O)N[C@H](C(=O)N1CCC[C@H]1C(=O)N[C@H](C(=O)NCC(=O)N[C@@H](CO)C(=O)N[C@@H](CC(N)=O)C(=O)N[C@H](C(=O)N[C@@H](Cc1ccc(O)cc1)C(N)=O)[C@@H](C)O)C(C)C)[C@@H](C)O
notes: also called 14K, 17R, 21P, 27P, 31P
B3: the IC50 was determined as 791 pM.

B4: N^ε1-[2-[2-[2-[[(4S)-4-carboxy-4-(19-carboxynonadecanoylamino)butanoyl]amino]ethoxy]ethoxy]acetyl]-[His14,Arg17,Pro21,Pro27]-h-amylin (peptide)
peptide: K([AEEA-γGlu-C20 diacid])CNTATCATQRLAHFLRHSSPNFGAIPSSTNVGSNTY-NH2
modifications: disulfide 2-7; N-terminus assumed
SMILES: CC[C@H](C)[C@H](NC(=O)[C@H](C)NC(=O)CNC(=O)[C@H](Cc1ccccc1)NC(=O)[C@H](CC(N)=O)NC(=O)[C@@H]1CCCN1C(=O)[C@H](CO)NC(=O)[C@H](CO)NC(=O)[C@H](Cc1c[nH]cn1)NC(=O)[C@H](CCCNC(=N)N)NC(=O)[C@H](CC(C)C)NC(=O)[C@H](Cc1ccccc1)NC(=O)[C@H](Cc1c[nH]cn1)NC(=O)[C@H](C)NC(=O)[C@H](CC(C)C)NC(=O)[C@H](CCCNC(=N)N)NC(=O)[C@H](CCC(N)=O)NC(=O)[C@@H](NC(=O)[C@H](C)NC(=O)[C@@H]1CSSC[C@H](NC(=O)[C@@H](N)CCCCNC(=O)COCCOCCNC(=O)CC[C@H](NC(=O)CCCCCCCCCCCCCCCCCCC(=O)O)C(=O)O)C(=O)N[C@@H](CC(N)=O)C(=O)N[C@@H]([C@@H](C)O)C(=O)N[C@@H](C)C(=O)N[C@@H]([C@@H](C)O)C(=O)N1)[C@@H](C)O)C(=O)N1CCC[C@H]1C(=O)N[C@@H](CO)C(=O)N[C@@H](CO)C(=O)N[C@H](C(=O)N[C@@H](CC(N)=O)C(=O)N[C@H](C(=O)NCC(=O)N[C@@H](CO)C(=O)N[C@@H](CC(N)=O)C(=O)N[C@H](C(=O)N[C@@H](Cc1ccc(O)cc1)C(N)=O)[C@@H](C)O)C(C)C)[C@@H](C)O
notes: also called 14H, 17R, 21P, 27P
Turning to B4, the IC50 was found to be 133 pM.

B5: N^ε1-[2-[2-[2-[[(4S)-4-carboxy-4-(19-carboxynonadecanoylamino)butanoyl]amino]ethoxy]ethoxy]acetyl]-[Thr14,Arg17,Pro21,Pro27,Pro31]-h-amylin (peptide)
peptide: K([AEEA-γGlu-C20 diacid])CNTATCATQRLATFLRHSSPNFGAIPSSTPVGSNTY-NH2
modifications: disulfide 2-7; N-terminus assumed
SMILES: CC[C@H](C)[C@H](NC(=O)[C@H](C)NC(=O)CNC(=O)[C@H](Cc1ccccc1)NC(=O)[C@H](CC(N)=O)NC(=O)[C@@H]1CCCN1C(=O)[C@H](CO)NC(=O)[C@H](CO)NC(=O)[C@H](Cc1c[nH]cn1)NC(=O)[C@H](CCCNC(=N)N)NC(=O)[C@H](CC(C)C)NC(=O)[C@H](Cc1ccccc1)NC(=O)[C@@H](NC(=O)[C@H](C)NC(=O)[C@H](CC(C)C)NC(=O)[C@H](CCCNC(=N)N)NC(=O)[C@H](CCC(N)=O)NC(=O)[C@@H](NC(=O)[C@H](C)NC(=O)[C@@H]1CSSC[C@H](NC(=O)[C@@H](N)CCCCNC(=O)COCCOCCNC(=O)CC[C@H](NC(=O)CCCCCCCCCCCCCCCCCCC(=O)O)C(=O)O)C(=O)N[C@@H](CC(N)=O)C(=O)N[C@@H]([C@@H](C)O)C(=O)N[C@@H](C)C(=O)N[C@@H]([C@@H](C)O)C(=O)N1)[C@@H](C)O)[C@@H](C)O)C(=O)N1CCC[C@H]1C(=O)N[C@@H](CO)C(=O)N[C@@H](CO)C(=O)N[C@H](C(=O)N1CCC[C@H]1C(=O)N[C@H](C(=O)NCC(=O)N[C@@H](CO)C(=O)N[C@@H](CC(N)=O)C(=O)N[C@H](C(=O)N[C@@H](Cc1ccc(O)cc1)C(N)=O)[C@@H](C)O)C(C)C)[C@@H](C)O
notes: also called 14T, 17R, 21P, 27P, 31P
In turn, B5 had an IC50 of 666 pM.
